In assay [1] the target is dopamine D2 receptor (rat, endogenous) (rat (endogenous in rat striatum)) (UniProt P61169). Nature of the assay: co-IP; rat NAc protein homogenates (300 ug), anti-D2R antibody overnight at 4 C, protein G/A, blot with anti-D1R; rats treated with saline or SKF 83959, with or without TAT-D1 (300 pmol, i.c.v.).
For assay [2] the target is unchanged. The assay is described as follows: FRET or BRET; in situ confocal FRET on rat brain sections, NAc (core and shell); anti-D1R-Alexa 488 (donor) and anti-D2R-Alexa 568 (acceptor) directly conjugated. For orientation: In BRET a luciferase serves as donor, and the signal depends on an acceptor being close.

UniProt P61169, sequence (P61169 whole entry): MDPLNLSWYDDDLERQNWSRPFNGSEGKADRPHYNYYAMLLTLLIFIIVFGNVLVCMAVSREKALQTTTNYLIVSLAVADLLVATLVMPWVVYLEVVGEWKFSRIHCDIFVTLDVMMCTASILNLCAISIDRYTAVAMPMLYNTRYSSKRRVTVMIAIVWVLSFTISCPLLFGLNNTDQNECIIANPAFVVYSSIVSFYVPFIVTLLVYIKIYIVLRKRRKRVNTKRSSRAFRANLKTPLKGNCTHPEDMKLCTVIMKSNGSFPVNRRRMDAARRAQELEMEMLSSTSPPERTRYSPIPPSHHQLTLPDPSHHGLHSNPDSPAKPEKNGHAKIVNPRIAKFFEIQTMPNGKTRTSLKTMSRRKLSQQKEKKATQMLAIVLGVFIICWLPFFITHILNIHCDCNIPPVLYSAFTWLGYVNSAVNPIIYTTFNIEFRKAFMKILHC

On to TAT-D1 peptide, for which the percent decrease of D1R co-immunoprecipitated with D2R in assay [1] was > 50%.
“dopamine D1 receptor (rat, endogenous) (from UniProt P18901 1-446)” came in with an FRET efficiency in assay [2] of 0.36.
